Results published in patent US20230322908A1 (AC IMMUNE, published 2023).
Where no end group is shown, it is not given here.

T1: Biotinylated TP-73 peptide (aa 181-190 of SEQ ID NO:1) (human, also: biotinylated (position not given here))
T1 construct: Immobilized on a streptavidin (SA) sensor chip
T1 peptide: KQSQDEPLRS

B1: ACI-7069-641H1-Ab2 (antibody, mouse IgG2b, V domains shown)
VH: QVQLKESGPGLVAPSQSLSITCTVSGFSLTNYGVHWVRQPPGKGLEWLGLMWAGGSTNYNSALMSRLSISKDNSKSQVFLKMNSLQTDDTAMYYCVIYRTGFAYWGQGTLVTVSA
VL: DVLMTQTPLSLPVSLGDQASISCRSSQSIVHTIGNTYLEWYLQKPGQSPKLLIYKVSNRFSGVPDRFSGSGSGTDFTLKISRVEAEDLGVYYCFQGSHVPFTFGSGTKLEIK
notes: Mouse IgG2b, kappa, from hybridoma; also called 641H1E7
B2: ACI-7069-646B7-Ab1 (antibody, mouse IgG2b, V domains shown)
VH: QVQLKESGPGLVAPSQSLSITCTVSGFSLTNFGVHWVRQPPGKGLEWLGIMWAGGSTNYNSALMSRLSISKDNSKSQVFLKMNSLQTDDTAMYYCVIYKTGFAYWGQGTLVTVSA
VL: DVLMTQTPLSLPVSLGDQASISCRSSQSIVHAIGNTYLEWYLQKPGQSPKLLIYKVSNRFSGVPDRFSGSGSGTDFTLKISRVEAEDLGVYYCFQGSHVPFTFGSGTKLEIK
notes: Mouse IgG2b, kappa, from hybridoma; also called 646B7F7
B3: ACI-7069-642D12-Ab1 (antibody, mouse IgG2b, V domains shown)
VH: EVQLQQSGAELVKPGASVRLSCTASGFNIKDPYMHWVRQRPKQGLEWIGRIDPADGNTKYDPKFQGKATLTADTSSNVAYLHLSSLTSEDTAVYYCARFYGSSHWYFDVWGAGTTVTVSS
VL: DIKMTQSPSSMYASLGERVTITCKASQDIKRYLSWYQQKPWKSPKILIYYATSLADGVPSRFSGTGSGQDYSLTISSLESDDVATYYCLQQGESPYTFGGGTKLEIK
notes: Mouse IgG2b, kappa, from hybridoma; also called 642D12B4
B4: ACI-7069-642D12-Ab1 (IgG2a variant) (antibody, V domains shown)
VH: EVQLQQSGAELVKPGASVRLSCTASGFNIKDPYMHWVRQRPKQGLEWIGRIDPADGNTKYDPKFQGKATLTADTSSNVAYLHLSSLTSEDTAVYYCARFYGSSHWYFDVWGAGTTVTVSS
VL: DIKMTQSPSSMYASLGERVTITCKASQDIKRYLSWYQQKPWKSPKILIYYATSLADGVPSRFSGTGSGQDYSLTISSLESDDVATYYCLQQGESPYTFGGGTKLEIK
notes: Recombinantly produced mouse IgG2a isotype; also called 642D12B4 *; ACI-7069-642D12-Ab1 (IgG2a isotype)
B5: ACI-7071-712A6-Ab1 (antibody, mouse IgG2c, V domains shown)
VH: QVQLQQSGAELVKPGTSVKLSCKASAYTFTEYTIHWIKQKSGQGLEWIGWFHPENDNIKYNENFKDKATLTADRSSSTVYMELSRLTSEDSAVYFCAGTSGYGDYWGQGTTLTVSS
VL: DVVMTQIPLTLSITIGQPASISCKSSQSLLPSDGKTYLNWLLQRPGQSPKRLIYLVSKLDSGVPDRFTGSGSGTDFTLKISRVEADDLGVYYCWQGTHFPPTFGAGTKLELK
notes: Mouse IgG2c; also called 712A6B10

Experiments:
[1] = target: T2, recombinant human full-length TDP-43 (TAR DNA-binding protein 43), soluble (human, UniProt Q13148 1-414); experiment: Luminex, FL TDP-43 on beads
T2 construct: Used on Luminex beads, coated on ELISA plates, and immobilized or injected in SPR; also called FL TDP-43; TDP-43 protein
T2 sequence (Q13148 whole entry): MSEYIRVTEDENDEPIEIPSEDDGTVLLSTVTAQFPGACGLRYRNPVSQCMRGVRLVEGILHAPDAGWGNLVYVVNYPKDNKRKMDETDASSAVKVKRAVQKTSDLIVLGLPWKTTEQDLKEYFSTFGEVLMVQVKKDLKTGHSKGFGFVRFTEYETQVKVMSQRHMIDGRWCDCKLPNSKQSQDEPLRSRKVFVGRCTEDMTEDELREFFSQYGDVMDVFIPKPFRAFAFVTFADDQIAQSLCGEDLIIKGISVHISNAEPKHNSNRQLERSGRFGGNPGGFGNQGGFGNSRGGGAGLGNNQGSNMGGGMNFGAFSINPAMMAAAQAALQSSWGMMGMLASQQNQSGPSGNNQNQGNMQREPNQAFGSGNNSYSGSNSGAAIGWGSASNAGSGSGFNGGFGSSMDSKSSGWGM
Experimental: Mice were euthanized and fusion with myeloma cells was performed using splenocytes from four individual mice. Screening for antibodies from the successfully fused hybridoma cell lines were performed as follows. Diluted (1:32) cell culture supernatants were analyzed using Luminex bead-based multiplex assay (Luminex, The Netherlands). Luminex beads were conjugated to FL TDP-43 and with capturing IgGs with anti-mouse IgG-Fc antibodies specific for the IgG1, IgG2a, IgG2b, IgG2c, and IgG3 subclasses (Jackson Immunoresearch, USA). Binding to beads conjugated to FL TDP-43 identified 386 hits derived from mice immunized with the FL TDP-43 liposomal vaccine.
Luminex assays with serial dilution of antibodies were performed as described before to determine half maximal effective concentration (EC50) of binding of antibodies to FL TDP-43. In summary, all tested antibodies bind to full length TDP-43 with high affinity.

[2] = target: T2, recombinant human full-length TDP-43 …; experiment: indirect ELISA, coated FL TDP-43
Experimental: Antibody binding to human FL TDP-43 was determined using an indirect ELISA. ELISA plate coating with 1 µg/ml human FL TDP-43 was performed overnight in carbonate buffer at 4° C. Plates were washed with 0.05% Tween-20/PBS and then blocked with 1% bovine serum albumin (BSA) in 0.05% Tween-20/PBS for 1 hour at 37° C. Antibodies purified from hybridoma supernatants were then added in a 3-fold serial dilution starting at 1 µg/ml, and incubated for 2 hours at 37° C. after which the plates were washed. An AP-conjugated anti-mouse IgG secondary antibody (Jackson Immunoresearch Laboratories, United Kingdom) was added at 1/1000 dilution in 0.05% Tween-20/PBS for 1 hour at 37° C. After the final wash, plates were incubated with pNPP (Sigma-Aldrich, Switzerland) phosphatase substrate solution, and read at 405 nm using an ELISA plate reader (Tecan, Switzerland).

[3] = target: T3, recombinant human aggregated full-length TDP-43 (human, UniProt Q13148 1-414); experiment: SPR, immobilized aggregated TDP-43
T3 construct: also called aggregated TDP-43; aggregated FL TDP-43
T3 sequence (Q13148 whole entry): as above
Experimental: (§1) Binding avidity to soluble or aggregated FL TDP-43 was evaluated by determing the dissociation constants (KD) using surface plasmon resonance (SPR; Biacore T200, GE Healthcare Life Sciences). Recombinant human soluble or aggregated FL TDP-43 were immobilized on a CM5 Series S sensor chip (GE Healthcare Life Sciences) by amine coupling. Soluble TDP-43 was immobilized at a concentration of 5 µg/ml in 10 mM sodium acetate (pH 4.5) with a flow rate of 5 µl/min for 420 seconds resulting in an immobilization level of 150 RU. Aggregated TDP-43 was immobilized at a concentration of 50 µg/ml in 10 mM sodium acetate (pH 4.5) with a flow rate of 5 µl/min for 840 seconds resulting in an immobilization level of 110 RU. Biotinylated TP-73 peptide (aa 181-190 of SEQ ID NO:1) was immobilized on a Series S Sensor Chip SA (GE Healthcare Life Sciences) at a concentration of 5 µg/ml in PBS-P⁺ with a flow rate of 5 µl/min for 30 seconds resulting in an immobilization level of 400 RU. […] The antibodies were injected at a flow rate of 50 µl/min for 90 seconds contact time and 700 seconds dissociation phase followed by three regenerations with 10 mM glycine-HCl pH 1.7. For the optimized SPR protocol the antibodies were diluted 3-fold starting from 300 nM and dilute down to 1.2 nM and injected for 300 seconds at 30 µl/min followed by 600 seconds dissociation. The surface was regenerated by one injection with 10 mM glycine-HCl pH 1.7. Results obtained from binding kinetics were double-referenced using a blank flow cell and a buffer cycle and were evaluated with a global 1:1 fitting model with RI. Avidities for 11 antibodies and two Fab fragments are depicted in Table 8. […] In addition, some antibodies show preferential binding to aggregated TDP-43 as compared with soluble TDP-43.

[4] = target: T2, recombinant human full-length TDP-43 …; experiment: SPR, immobilized soluble TDP-43
Experimental: as §1

[5] = target: T2, recombinant human full-length TDP-43 …; experiment: SPR, mAb captured, FL TDP-43 injected; mean
Experimental: Binding affinity to soluble FL TDP-43 was evaluated by determing the dissociation constants (KD) using surface plasmon resonance (SPR; Biacore T200, GE Healthcare Life Sciences). Goat-anti mouse capture antibody was immobilized on a CM5 Series S sensor chip (GE Healthcare Life Sciences) by amine coupling. Antibodies were captured at a concentration of 2-5 µg/ml in PBS-P⁺ (GE Healthcare Life Sciences) with a flow rate of 10 µl/min for 120 seconds resulting in a capture level of 350-1000 RU. […] Dissociation was recorded for 1 h followed by one regeneration with 10 mM glycine-HCl pH 1.7. Results obtained from binding kinetics were double-referenced using a blank flow cell and a buffer cycle and were evaluated with a global 1:1 fitting model with RI.

[6] = target: T1, Biotinylated TP-73 peptide (aa 181-190 …); experiment: SPR, biotinylated TP-73 on SA chip
Experimental: Binding avidity to soluble or aggregated FL TDP-43 was evaluated by determing the dissociation constants (KD) using surface plasmon resonance (SPR; Biacore T200, GE Healthcare Life Sciences). Recombinant human soluble or aggregated FL TDP-43 were immobilized on a CM5 Series S sensor chip (GE Healthcare Life Sciences) by amine coupling. Soluble TDP-43 was immobilized at a concentration of 5 µg/ml in 10 mM sodium acetate (pH 4.5) with a flow rate of 5 µl/min for 420 seconds resulting in an immobilization level of 150 RU. Aggregated TDP-43 was immobilized at a concentration of 50 µg/ml in 10 mM sodium acetate (pH 4.5) with a flow rate of 5 µl/min for 840 seconds resulting in an immobilization level of 110 RU. Biotinylated TP-73 peptide (aa 181-190 of SEQ ID NO:1) was immobilized on a Series S Sensor Chip SA (GE Healthcare Life Sciences) at a concentration of 5 µg/ml in PBS-P⁺ with a flow rate of 5 µl/min for 30 seconds resulting in an immobilization level of 400 RU. […] The antibodies were injected at a flow rate of 50 µl/min for 90 seconds contact time and 700 seconds dissociation phase followed by three regenerations with 10 mM glycine-HCl pH 1.7. […] Results obtained from binding kinetics were double-referenced using a blank flow cell and a buffer cycle and were evaluated with a global 1:1 fitting model with RI. […]

[7] = target: T2, recombinant human full-length TDP-43 …; experiment: SPR optimized protocol, immobilized soluble TDP-43
[8] = target: T3, recombinant human aggregated …; experiment: SPR optimized protocol, immobilized aggregated TDP-43

Row | Binder | EC50 [1] [nM] | EC50 [2] [µg/mL] | Kd [3] [nM] | koff [3] [s⁻¹] | kon [3] [M⁻¹ s⁻¹] | Kd [4] [nM] | koff [4] [s⁻¹] | kon [4] [M⁻¹ s⁻¹] | Kd [5] [nM] | koff [5] [s⁻¹] | kon [5] [M⁻¹ s⁻¹] | Kd [6] [nM] | Kd [7] [nM] | koff [7] [s⁻¹] | kon [7] [M⁻¹ s⁻¹] | Kd [8] [nM] | koff [8] [s⁻¹] | kon [8] [M⁻¹ s⁻¹]
1 | B1 | < 0.01 | 0.016 | 1.6 | 0.000193 | 121000 | 6.76 | 0.000841 | 125000 | – | – | – | – | – | – | – | – | – | –
2 | B2 | < 0.01 | 0.011 | 1.28 | 0.000184 | 144000 | 3.66 | 0.00065 | 178000 | – | – | – | – | – | – | – | – | – | –
3 | B3 | < 0.01 | 0.014 | 0.88 | 0.000131 | 148000 | 5.28 | 0.000838 | 159000 | 0.249 | 2.76e-05 | 110000 | 3.6 | – | – | – | – | – | –
4 | B4 | – | – | – | – | – | – | – | – | – | – | – | – | 3.9 | 0.00045 | 115000 | 0.69 | 9.87e-05 | 149000
5 | B5 | 0.18 | 0.102 | 0.68 | 2.36e-05 | 34800 | 406 | 0.000545 | 1340 | – | – | – | – | – | – | – | – | – | –
